According to paper PMC13364712:

Target: actin filaments (actin from Gallus gallus skeletal muscle) (Gallus gallus (chicken)), P68139
Assay: co-sedimentation; 4 µM EGFP–SFM peptide with 0–200 µM actin filaments in F buffer, 1 h at room temperature, 100,000g for 30 min; pellet read by anti-EGFP western blot; one-site specific binding fit; apparent

Kd: 2 µM
Binder: RRSVGELRLLFEARCAAVAAAA (modifications not checked) [EGFP-tagged ITPKA SFM peptide, P23677 1-461]
